# Measurements published in publication PMC12881670, “Investigation into ligand selectivity and bias at the formyl peptide receptor family” (The Journal of Pharmacology and Experimental Therapeutics, 2025).
# Where no end group is shown, it is not given here. The star is where a group is joined. For = O=C*
# T1: FLAG-Mm_Fpr1 C-terminally fused to Renilla Luciferase 8 (mouse, UniProt P33766 1-364)
# T1 sequence (looked up): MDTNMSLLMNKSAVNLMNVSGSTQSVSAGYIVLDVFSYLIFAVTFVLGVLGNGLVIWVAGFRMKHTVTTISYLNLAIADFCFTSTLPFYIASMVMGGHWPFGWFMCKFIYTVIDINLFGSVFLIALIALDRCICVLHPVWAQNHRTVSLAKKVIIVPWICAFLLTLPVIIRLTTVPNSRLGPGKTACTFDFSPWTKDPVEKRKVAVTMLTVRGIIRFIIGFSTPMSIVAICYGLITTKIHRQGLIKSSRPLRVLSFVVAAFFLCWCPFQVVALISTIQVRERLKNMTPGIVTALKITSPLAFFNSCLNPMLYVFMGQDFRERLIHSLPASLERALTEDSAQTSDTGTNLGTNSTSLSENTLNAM
# T2: FLAG-Mm_Fpr2 C-terminally fused to Renilla Luciferase 8 (mouse, UniProt O88536 1-351)
# T2 sequence (looked up): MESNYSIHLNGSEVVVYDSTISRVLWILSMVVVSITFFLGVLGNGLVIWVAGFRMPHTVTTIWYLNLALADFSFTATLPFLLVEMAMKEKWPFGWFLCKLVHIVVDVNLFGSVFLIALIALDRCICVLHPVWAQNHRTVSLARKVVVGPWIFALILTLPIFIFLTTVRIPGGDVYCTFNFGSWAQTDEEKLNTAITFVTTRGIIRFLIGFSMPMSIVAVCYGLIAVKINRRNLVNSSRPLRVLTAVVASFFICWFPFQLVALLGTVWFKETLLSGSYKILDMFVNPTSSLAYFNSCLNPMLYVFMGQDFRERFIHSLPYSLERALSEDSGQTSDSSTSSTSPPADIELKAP
# T3: FLAG-Hs_FPR1 C-terminally fused to Renilla Luciferase 8 (human, UniProt P21462 1-350)
# T3 sequence (looked up): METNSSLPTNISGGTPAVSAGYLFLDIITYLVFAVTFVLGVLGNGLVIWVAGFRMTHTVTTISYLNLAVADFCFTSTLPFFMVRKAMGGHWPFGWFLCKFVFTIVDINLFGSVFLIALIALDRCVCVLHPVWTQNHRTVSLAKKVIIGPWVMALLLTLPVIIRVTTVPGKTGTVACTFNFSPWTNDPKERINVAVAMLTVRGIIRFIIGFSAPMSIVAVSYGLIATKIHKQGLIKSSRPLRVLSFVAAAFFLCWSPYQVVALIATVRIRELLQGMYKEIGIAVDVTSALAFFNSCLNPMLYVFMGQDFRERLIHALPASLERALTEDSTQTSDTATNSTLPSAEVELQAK
# T4: FLAG-Hs_FPR2 C-terminally fused to Renilla Luciferase 8 (human, UniProt P25090 1-351)
# T4 sequence (looked up): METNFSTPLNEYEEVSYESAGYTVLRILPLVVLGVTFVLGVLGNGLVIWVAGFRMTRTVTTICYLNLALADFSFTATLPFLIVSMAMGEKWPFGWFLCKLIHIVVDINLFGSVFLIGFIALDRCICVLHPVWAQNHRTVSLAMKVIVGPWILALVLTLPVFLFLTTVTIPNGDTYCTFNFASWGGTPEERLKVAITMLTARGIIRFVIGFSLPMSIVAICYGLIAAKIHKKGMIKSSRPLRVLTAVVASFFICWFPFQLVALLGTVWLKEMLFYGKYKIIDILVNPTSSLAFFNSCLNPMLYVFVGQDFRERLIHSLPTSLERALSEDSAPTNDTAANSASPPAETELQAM
# T5: FLAG-tagged human FPR2 (Hs_FPR2) (human, UniProt P25090 1-351)
# T5 sequence (looked up): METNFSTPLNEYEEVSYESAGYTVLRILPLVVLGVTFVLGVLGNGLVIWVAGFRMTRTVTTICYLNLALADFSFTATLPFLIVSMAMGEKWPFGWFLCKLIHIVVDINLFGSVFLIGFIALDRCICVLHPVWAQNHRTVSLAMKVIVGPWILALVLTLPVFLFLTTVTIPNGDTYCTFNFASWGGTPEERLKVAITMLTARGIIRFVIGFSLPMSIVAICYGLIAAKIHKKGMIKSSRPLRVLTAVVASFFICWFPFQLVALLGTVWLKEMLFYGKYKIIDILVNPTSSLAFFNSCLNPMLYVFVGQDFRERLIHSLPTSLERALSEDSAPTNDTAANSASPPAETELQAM
# T6: FLAG-tagged mouse Fpr1 (Mm_Fpr1) (mouse, UniProt P33766 1-364)
# T6 sequence (looked up): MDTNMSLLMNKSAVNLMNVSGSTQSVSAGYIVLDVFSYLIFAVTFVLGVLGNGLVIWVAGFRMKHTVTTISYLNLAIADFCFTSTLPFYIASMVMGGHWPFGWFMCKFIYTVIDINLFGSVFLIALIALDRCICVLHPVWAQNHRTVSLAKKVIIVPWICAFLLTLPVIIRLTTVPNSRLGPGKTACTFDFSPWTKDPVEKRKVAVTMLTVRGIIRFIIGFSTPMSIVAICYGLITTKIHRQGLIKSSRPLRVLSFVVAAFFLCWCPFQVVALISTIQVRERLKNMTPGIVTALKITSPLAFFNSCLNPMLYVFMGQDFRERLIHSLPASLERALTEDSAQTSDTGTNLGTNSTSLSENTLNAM
# Columns and labels:
# Experiment in all cases: cell-based or functional assay
# [1] = target: T1, FLAG-Mm_Fpr1 C-terminally fused to …
# [2] = target: T2, FLAG-Mm_Fpr2 C-terminally fused to …
# [3] = target: T3, FLAG-Hs_FPR1 C-terminally fused to …
# [4] = target: T1, FLAG-Mm_Fpr1 C-terminally fused to …; remark: listed apart in the source
# [5] = target: T4, FLAG-Hs_FPR2 C-terminally fused to …
# [6] = target: T2, FLAG-Mm_Fpr2 C-terminally fused to …; remark: listed apart in the source
# [7] = target: T3, FLAG-Hs_FPR1 C-terminally fused to …; remark: listed apart in the source
# [8] = target: T5, FLAG-tagged human FPR2 (Hs_FPR2)
# [9] = target: T4, FLAG-Hs_FPR2 C-terminally fused to …; remark: listed apart in the source
# [10] = target: T5, FLAG-tagged human FPR2 (Hs_FPR2); remark: listed apart in the source
# [11] = target: T6, FLAG-tagged mouse Fpr1 (Mm_Fpr1)
Binder,BRET of receptor-RLuc8 with Arrestin 3-YFP: Emax (% of 1 μM WKYMVm) [2],BRET of receptor-RLuc8 with Arrestin 3-YFP: Log EC50 (M) [2],BRET of receptor-RLuc8 with Venus-mGsi: Emax (% of 1 μM WKYMVm) [4],BRET of receptor-RLuc8 with Venus-mGsi: Log EC50 (M) [4],BRET of receptor-RLuc8 with Venus-mGsi: Emax (% of 1 μM WKYMVm) [5],BRET of receptor-RLuc8 with Venus-mGsi: Log EC50 (M) [5],BRET of receptor-RLuc8 with Venus-mGsi: Emax (% of 1 μM WKYMVm) [6],BRET of receptor-RLuc8 with Venus-mGsi: Log EC50 (M) [6],other results
For-Met-Leu-Phe [fMet-Leu-Phe (fMLF)],22.7%,-4.71 log M,59.3%,-4.93 log M,61.7%,-4.05 log M,13.2%,-4.58 log M,BRET of receptor-RLuc8 with Arrestin 3-YFP: Emax (% of 1 μM WKYMVm) [1]: 83.4%; BRET of receptor-RLuc8 with Arrestin 3-YFP: Log EC50 (M) [1]: -4.68 log M; BRET of receptor-RLuc8 with Arrestin 3-YFP: Emax (% of 1 μM WKYMVm) [3]: 97%; BRET of receptor-RLuc8 with Arrestin 3-YFP: Log EC50 (M) [3]: -7.08 log M; BRET of receptor-RLuc8 with Venus-mGsi: Emax (% of 1 μM WKYMVm) [7]: 115%; BRET of receptor-RLuc8 with Venus-mGsi: Log EC50 (M) [7]: -6.47 log M
For-MTPMRKINPLMKLIN [MCT-2 (Formyl-MTPMRKINPLMKLIN from Cytochrome b)],12.1%,-10.3 log M,-8.19%,-7.78 log M,44.4%,-6.23 log M,25%,-4.77 log M,ERK1/2 phosphorylation (Western blot): Emax (% of 1 μM WKYMVm) [8]: 93.9%; ERK1/2 phosphorylation (Western blot): Log EC50 (M) [8]: -6.72 log M; BRET of receptor-RLuc8 with Arrestin 3-YFP: Emax (% of 1 μM WKYMVm) [9]: 51.8%; BRET of receptor-RLuc8 with Arrestin 3-YFP: Log EC50 (M) [9]: -6.06 log M; receptor internalization (flow cytometry): Emax (% of 1 μM WKYMVm) [10]: 63.3%; receptor internalization (flow cytometry): Log EC50 (M) [10]: -6.87 log M; receptor internalization (flow cytometry): Emax (% of 1 μM WKYMVm) [11]: 7.39%; receptor internalization (flow cytometry): Log EC50 (M) [11]: -7.24 log M
